Data on 11 molecules can be found in patent US20060240510A1, “Method for designing peptides” (CTT Cancer Targeting Technologies OY, priority 2002, published 2006).

Like-named read-outs stand apart in the source and are kept apart here. Where a SMILES comes first, the peptide text is derived from it. Bridges are numbered along the chain shown (N, C = ends). Where no end group is shown, it is not given here.

Series [1] is described as follows: Peptide stability in human serum. The series is classed as in vitro ADME. The settings on record: undiluted human serum, 37° C., anti-CTT antibody dot blot. The method, then: (§1) FIG. 3A and 3B. Activity and stability of the tryptophan analogue containing CTT peptides. (A) Inhibition of MMP-2 using β-casein (21 IcDa) as substrate. The peptides (100 μM) were incubated with MMP-2 and β-casein (0.1 mg/ml) for 2 h and samples run on a 15% SDS-PAGE gel. (B) iCTT, 5F-CTT or a negative control peptide CERGGLETSC at a 150 μM concentration was incubated in undiluted human serum for the indicated time periods at 37° C. Samples were withdrawn, stored frozen and blotted on a nitrocellulose membrane. The level of CTT was quantitated using polyclonal anti-CTT antibody. The blots were scanned and the results shown are means ±SD from triplicate measurements. The results were similar in two other experiments.
Spectrometry and fluorometry. The absorbance spectrum for each peptide in the 200-375 nm range was measured in 20 mM Tris-HCl (pH 7.4)/50 mM NaCl/0.1 mM EDTA with Genesys 5 spectrophotometer (Thermo Spectronic, Rochester, N.Y.). The fluorescence spectra of the CTT phage cultured in the presence of tryptophan, 5FW or 6FW were measured from heat-denatured phages (2×10^9/ml) in 10 mM Tris-HCl (pH 7.5)/140 mM NaCl/1% SDS. The fluorescence emission spectra (average of three scans) at 300-500 nm were recorded with MOS-250 spectrofluorometer. The peptides were excited at 295 nm (bandwidth 5 nm) and the emission spectra recorded in the 300-500 nm range. Peptide stability in human serum. […]

Series [2] is described as follows: Peptide stability in cell culture medium. The series is classed as in vitro ADME. The settings on record: cell culture medium with 10% heat-inactivated fetal calf serum. The method, then: The gelatinase inhibitory activities of the modified CTT peptides were tested in the β-casein degradation assay (FIG. 3A) and the gelatin degradation assay (data not shown). […] To determine the peptide levels, we used anti-CTT antibody that also recognized the 5F-Trp containing peptide. […] We could not determine the half-lives of 5OH-Trp and 6F-Trp containing peptides as the anti-CTT antibody recognized these peptides only weakly in the presence of serum.

In series [3] the target is T1, MMP-2 (Homo sapiens, UniProt P08253).
T1 construct: purchased Roche
T1 sequence (P08253 110-660): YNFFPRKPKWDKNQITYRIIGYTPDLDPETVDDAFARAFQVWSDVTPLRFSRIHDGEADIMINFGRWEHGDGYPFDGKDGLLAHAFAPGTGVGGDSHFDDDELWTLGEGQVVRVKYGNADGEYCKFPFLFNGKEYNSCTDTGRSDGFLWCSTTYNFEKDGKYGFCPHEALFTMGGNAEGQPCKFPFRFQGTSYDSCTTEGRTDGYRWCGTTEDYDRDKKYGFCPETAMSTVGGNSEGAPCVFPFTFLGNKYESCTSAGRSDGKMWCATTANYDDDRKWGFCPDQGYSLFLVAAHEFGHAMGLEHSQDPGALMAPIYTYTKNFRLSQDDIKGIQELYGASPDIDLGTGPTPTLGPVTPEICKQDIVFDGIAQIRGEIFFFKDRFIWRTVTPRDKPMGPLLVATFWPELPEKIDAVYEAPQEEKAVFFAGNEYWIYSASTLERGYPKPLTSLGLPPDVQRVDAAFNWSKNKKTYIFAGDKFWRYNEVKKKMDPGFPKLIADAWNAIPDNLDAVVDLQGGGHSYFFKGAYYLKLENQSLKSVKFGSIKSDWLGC
Briefly: Gelatin degradation assay (biotinylated gelatin), MMP-2. The series is classed as biochemical. The method, then:
(§2) FIG. 1A and 1B. Inhibition of NWP-2 and MMP-9 by synthetic or intein-produced peptides. (A) MMP-9 was treated with CTT, iCTT, or STT at the peptide concentrations indicated. MMP-9 activity was determined using biotinylated gelatin. (13) The activity of the alanine mutant peptides (see Table 1) was compared to that of CTT, which inhibited MMP-2 by 100% in the gelatin degradation assay. In all assays the peptides were preincubated with the enzyme for 30 min before the substrate was added.
(§3) Gelatinase inhibition assays. Gelatiases proMMP-2 and proMMP-9 (Roche) were activated with p-aminophenylmercuric acetate or trypsin, respectively, and then incubated in the presence or absence of each peptide to be tested for 30 min. The gelatinase inhibitory activity was determined using the following three assays: (i) The degradation of biotinylated gelatin was examined using a gelatinase activity kit according to the manufacturer's instructions. (Roche). (ii) The degradation of a MMP-2 specific fluorescent peptide substrate MCA-Pro-Leu-Ala-Nva-Dpa-Ala-Arg-NH2 (Calbiochem) (2.5 μM final concentration) was followed using MOS-250 spectrofluorometer (Bio-Logic SA, Claix, France) with 330 nm excitation and 390 nm emission. (iii) The degradation of β-casein was studied by incubating activated MMP-2 with 0.1 mg/ml concentration of β-casein for 2 h at 37° C., after which the samples were analyzed on a 15% SDS-PAGE gel.

For the next series, the target named is T2, MMP-9 (Homo sapiens, UniProt P14780).
T2 construct: purchased Roche
Briefly: Gelatin degradation assay (biotinylated gelatin), MMP-9. The series is classed as biochemical. The method, then:
as §2
as §3, with “(ii) The degradation of a MMP-2 specific fluorescent peptide substrate MCA-Pro-Leu-Ala-Nva-Dpa-Ala-Arg-NH2 (Calbiochem) (2.5 μM final concentration) was followed using MOS-250 spectrofluorometer (Bio-Logic SA, Claix, France) with 330 nm excitation and 390 nm emission.” left out

Series [4] can be described thus: Solubility in water / PBS. The method, then:
The oligonucleotide was made double-stranded using PCR. The PCR product was digested with PstI and SapI and cloned to TWIN2 intein vector (New England Biolabs), digested also with PstI and SapI. This DNA construct was electroporated into MC1061 competent cells. […] The plasmid vectors were extracted from the pool of at least 216 independent clones of MC1061. The plasmids were then electroporated to ER2566 cells enabling the production of inteins. The cells harboring the plasmids were plated on LB plates containing ampicillin. 10 independent clones were pooled to one single pool. These 10 clones in one pool were cultured and the peptides were expressed and purified with chitin affinity column and reverse-phase C18 column. Each pool of peptides was tested for activity. The solubility in PBS was also tested. […] The plasmid coding for this peptide was sequenced and the peptide was synthesized with chemical synthesis.

Series [5] addresses T1, MMP-2. Briefly: β-casein degradation assay. The series is classed as biochemical. The settings on record: peptide 100 μM; β-casein 0.1 mg/ml, 2 h. The method, then:
as §1
as §3, with “(ii) The degradation of a MMP-2 specific fluorescent peptide substrate MCA-Pro-Leu-Ala-Nva-Dpa-Ala-Arg-NH2 (Calbiochem) (2.5 μM final concentration) was followed using MOS-250 spectrofluorometer (Bio-Logic SA, Claix, France) with 330 nm excitation and 390 nm emission.” left out

In the next series the target is T3, gelatinase A (MMP-2) (Homo sapiens, UniProt P08253).
T3 construct: purchased Roche
T3 sequence (P08253 110-660): T1 sequence (P08253 110-660)
Briefly: Inhibition of gelatinase A by hydrophilic CTT library peptides. The series is classed as biochemical. The settings on record: FIG. 5.
Text: FIG. 5. Inhibition of gelatiaase A (MMP-2) with CTT-peptide, with pool 1 and pool 2, both containing 10 different peptide derivates of CTT. The library contains 216 different combinations of CTT peptide derivates. Clone 4 from pool 1 and clone 7 from pool 2 were purified and tested also for their inhibition activity against gelatinase A.
as §3
The oligonucleotide was made double-stranded using PCR. […] This DNA construct was electroporated into MC1061 competent cells. […]

The target of series [6] is T4, MMP-2 (gelatinase A), activated (UniProt P08253 30-660, limits assumed).
T4 sequence (looked up): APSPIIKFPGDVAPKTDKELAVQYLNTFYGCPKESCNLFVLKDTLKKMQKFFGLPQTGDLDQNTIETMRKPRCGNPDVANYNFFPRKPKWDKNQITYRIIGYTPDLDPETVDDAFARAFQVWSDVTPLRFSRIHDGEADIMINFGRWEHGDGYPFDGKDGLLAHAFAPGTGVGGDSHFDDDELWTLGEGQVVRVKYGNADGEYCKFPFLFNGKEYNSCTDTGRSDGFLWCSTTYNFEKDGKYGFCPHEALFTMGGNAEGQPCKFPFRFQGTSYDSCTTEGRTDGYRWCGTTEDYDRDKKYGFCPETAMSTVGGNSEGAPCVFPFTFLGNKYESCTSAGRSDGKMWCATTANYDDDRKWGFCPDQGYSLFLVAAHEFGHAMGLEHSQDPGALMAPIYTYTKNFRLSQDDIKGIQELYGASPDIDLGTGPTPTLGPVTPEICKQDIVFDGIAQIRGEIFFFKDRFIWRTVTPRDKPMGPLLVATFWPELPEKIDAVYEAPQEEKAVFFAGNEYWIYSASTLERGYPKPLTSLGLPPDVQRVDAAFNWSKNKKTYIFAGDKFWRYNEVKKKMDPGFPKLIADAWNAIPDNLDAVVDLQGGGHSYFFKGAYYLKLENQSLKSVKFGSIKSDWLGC
The experiment in a line: cell-based or functional assay.

The target in a further series is MMP-9, activated (UniProt P14780 20-707, limits assumed). The experiment in a line: cell-based or functional assay.
Chain of MMP-9, activated (P14780 20-707 limits assumed): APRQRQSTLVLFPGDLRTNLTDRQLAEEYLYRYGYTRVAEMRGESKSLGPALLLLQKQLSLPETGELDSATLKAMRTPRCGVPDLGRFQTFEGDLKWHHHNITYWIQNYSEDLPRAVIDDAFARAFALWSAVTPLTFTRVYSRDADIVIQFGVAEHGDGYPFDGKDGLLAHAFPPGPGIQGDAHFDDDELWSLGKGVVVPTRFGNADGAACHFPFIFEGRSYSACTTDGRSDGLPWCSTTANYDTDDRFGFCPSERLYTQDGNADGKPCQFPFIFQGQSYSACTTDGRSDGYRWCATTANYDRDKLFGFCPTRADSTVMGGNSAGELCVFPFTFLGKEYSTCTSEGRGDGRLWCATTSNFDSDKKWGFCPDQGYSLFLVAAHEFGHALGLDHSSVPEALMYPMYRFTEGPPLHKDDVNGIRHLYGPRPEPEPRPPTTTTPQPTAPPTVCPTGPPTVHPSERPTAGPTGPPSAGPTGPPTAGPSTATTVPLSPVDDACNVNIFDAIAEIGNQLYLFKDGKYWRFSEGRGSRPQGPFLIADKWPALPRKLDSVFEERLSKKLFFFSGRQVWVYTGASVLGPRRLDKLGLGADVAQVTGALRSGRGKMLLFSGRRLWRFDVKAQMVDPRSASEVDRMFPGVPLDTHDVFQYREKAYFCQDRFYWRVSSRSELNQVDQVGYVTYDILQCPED

T2 sequence (P14780 107-707 limits assumed): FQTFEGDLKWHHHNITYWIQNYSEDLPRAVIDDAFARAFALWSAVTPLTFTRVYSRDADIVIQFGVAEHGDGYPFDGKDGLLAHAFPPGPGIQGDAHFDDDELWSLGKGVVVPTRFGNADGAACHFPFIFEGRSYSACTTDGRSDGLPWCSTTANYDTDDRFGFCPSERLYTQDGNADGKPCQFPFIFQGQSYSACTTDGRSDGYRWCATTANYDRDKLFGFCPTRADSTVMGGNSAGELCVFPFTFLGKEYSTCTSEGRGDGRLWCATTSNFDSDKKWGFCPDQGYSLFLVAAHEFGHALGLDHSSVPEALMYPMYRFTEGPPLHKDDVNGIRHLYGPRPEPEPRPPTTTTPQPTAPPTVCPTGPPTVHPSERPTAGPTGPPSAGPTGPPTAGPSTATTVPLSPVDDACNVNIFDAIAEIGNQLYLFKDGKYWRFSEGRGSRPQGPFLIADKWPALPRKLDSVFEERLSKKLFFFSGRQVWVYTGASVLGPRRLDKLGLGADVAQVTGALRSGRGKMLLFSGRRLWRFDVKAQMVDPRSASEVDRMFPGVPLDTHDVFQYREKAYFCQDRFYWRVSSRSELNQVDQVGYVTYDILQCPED

In the case of `CC(C)C[C@@H]1NC(=O)[C@H]([C@@H](C)O)NC(=O)[C@H](Cc2ccccc2)NC(=O)CNC(=O)[C@H](Cc2c[nH]c3ccc(F)cc23)NC(=O)[C@H](Cc2c[nH]cn2)NC(=O)[C@H]([C@@H](C)O)NC(=O)[C@H]([C@@H](C)O)NC(=O)[C@@H](N)CSSC[C@@H](C(=O)O)NC1=O` [5F-Trp containing peptide, CTTH(5FW)GFTLC] (HELM PEPTIDE1{C.T.T.H.[O=C([C@H](Cc1c[nH]c2ccc(F)cc12)N[*:1])[*:2]].G.F.T.L.C}$PEPTIDE1,PEPTIDE1,1:R3-10:R3$$$V2.0; N-terminus and C-terminus assumed), in [1], the half-life at 150 μM is 3 h. For the same molecule, the “stability compared with CTT” value in series [2] is recorded as “No difference”. As for `CC(C)C[C@@H]1NC(=O)[C@H]([C@@H](C)O)NC(=O)[C@H](Cc2ccccc2)NC(=O)CNC(=O)[C@H](Cc2c[nH]c3ccccc23)NC(=O)[C@H](Cc2c[nH]cn2)NC(=O)[C@H]([C@@H](C)O)NC(=O)[C@H]([C@@H](C)O)NC(=O)[C@@H](N)CSSC[C@@H](C(=O)O)NC1=O` [CTT, CTTHWGFTLC] (HELM PEPTIDE1{C.T.T.H.W.G.F.T.L.C}$PEPTIDE1,PEPTIDE1,1:R3-10:R3$$$V2.0; bridges inferred), the IC50 stood at 20 µM on MMP-2 [3] (30 min preincubation, read-out: IC50, MMP-2 inhibition) and 20 µM on MMP-9 (30 min preincubation, read-out: IC50, MMP-9 inhibition). In addition, the “inhibition of MMP-2” value on MMP-2 [3] (FIG. 1B) stood at 100%. The solubility entry in series [4] is recorded as “water-soluble”. For the molecule `CC(C)C[C@@H]1NC(=O)[C@H]([C@@H](C)O)NC(=O)[C@H](Cc2ccccc2)NC(=O)CNC(=O)[C@H](Cc2c[nH]c3ccccc23)NC(=O)[C@H](Cc2c[nH]cn2)NC(=O)[C@H]([C@@H](C)O)NC(=O)[C@H]([C@@H](C)O)NC(=O)[C@@H](N)CSSC[C@@H](C(=O)O)NC1=O` [iCTT, CTTHWGFTLC] (HELM PEPTIDE1{C.T.T.H.W.G.F.T.L.C}$PEPTIDE1,PEPTIDE1,1:R3-10:R3$$$V2.0; N-terminus and C-terminus assumed), the “inhibition of casein degradation by MMP-2” value against MMP-2 [5] is reported as “nearly complete inhibition”. In series [1], this molecule gave a half-life at 150 μM of 0.5 h. On to “CTTAWGFTLC (disulfide 1-10 (inferred)) [H→A, Ala-substitution of the CTT-peptide]”, for which, in the series with MMP-2 [3] (FIG. 1B, CTT = 100% inhibition), the “% of the activity in comparison to the wild type peptide” value was “about 80%”.

Turning to “GRENYHGCTTRWGFTLC [tyrosine-containing CTT-peptide with additional hydrophilic amino acids, from the intein library]”, in [4] (water or PBS), the solubility entry is listed as “more soluble into water or PBS than the original peptide”. In the series with gelatinase A (MMP-2), the “gelatinase A inhibitory activity” value is given as “active”. Take “STTHWGFTLS [non-cyclic synthetic control peptide]”: the “gelatinase inhibitory activity relative to iCTT” value in the series with MMP-9 (FIG. 1A) is listed as “several fold less active than iCTT”. Turning to CTTHWGFTLC (disulfide 1-10 (inferred)) [CTT: CTTHWGFTLC peptide (chemically synthesized)], the “IC50, gelatin degradation assay” value in series [6] was found to be 20 µM; in the series with MMP-9, activated it was 20 µM.

For the molecule CTTHWGFTLC (disulfide 1-10 (inferred)) [iCTT: recombinant CTTHWGFTLC peptide], the “IC50, gelatin degradation assay” value stood at 20 µM in series [6] and 20 µM in the series with MMP-9, activated. Take CTTHWGATLC (disulfide 1-10 (inferred)) [F → A alanine mutant of CTT]: the “activity in comparison to the wild type peptide, gelatin degradation assay” value (shortened to “activity … gelatin degradation assay”) in series [6] was 36 % of the activity of the wild type peptide.

With CTTHAGFTLC (disulfide 1-10 (inferred)) [W → A alanine mutant of CTT], in series [6], the “activity … gelatin degradation assay” value is 17 % of the activity of the wild type peptide.

On to CTTHWAFTLC (disulfide 1-10 (inferred)) [G → A alanine mutant of CTT], for which, in series [6], the “activity … gelatin degradation assay” value was 53 % of the activity of the wild type peptide.
